Test: yeast display, Sf9 membrane polyspecificity reagent, FACS + sequencing; frameworks hold sequencing errors
How it was run: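 A nanobody's polyreactivity label depends on the gate it was sorted from. Yeast display cells were stained with 10% biotinylated, detergent-solubilized Sf9 membrane reagent for 1 hour at 4 °C, enriched on streptavidin microbeads and sorted by FACS. The low and high (top ~1%) gates were set on anti-HA fluorescence for expression and streptavidin fluorescence for reagent binding.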

Row | Sequence | polyreactivity (PSR sort gate)
1 | QVQLVESGGGFVQAGGSLRLSCASSGRTFHYYAMGWYRQAPGKERELVAAISFDGGTTYYADSVKGRFTISRDNAKNTVYLHMNSPKPEDTAVYYCNALRYRDRVGYNYWGQGTQVTVSS | high polyreactivity
2 | QVQLVESGGGLVQAGGSLRLSCAASGRTFRYYAMGWYRPAPGKERELVATITGSGGSTYYADSVKGRFTISRDNAKNTVYLQMNSLKPEDTAVYYCNARKVRYPYRWYDYWGQGTQVTVSS | high polyreactivity
3 | QVQLVESGGGLVQAGGSLRLSCAASGLTFRYYAMGWYRQAPGKERELVAAISSRGASTYYADSVKGRFTISRDNAKNTVYLQMNSLKPEDTAVYYCAVRTYVYHWSFSSLPYDYWGEGTQVTVSS | high polyreactivity
4 | QVQLVESGGGLVQAGGSLRLSCAASGSTFRYYVMGWYRQAPGKERELVAAISAGGGRTYYADSVKGRFTISRDNSKNTVYLQMNSLKPEDTAVYYCAAKSVTPYWQEYEYDYWGQGTQVTVSS | high polyreactivity
5 | QVQLVESGGGLVQAGGSLRISCAASGSIFTANSMGWYRQAPGKERELVAAITWSGGSTYYADSVKGRFTISRDNAKNTVYLQMNSLKPEDPAVYYCAALPLYLGPKRLGYWGQGTQVTVSS | high polyreactivity
6 | QVQLVESGGGLVQAGGSLRLSCAASGITFWYYAMGWYRQAPGKERELVAAINWSGGSTYYADSVKGRFTISRDNAKNTVYLQMNSLKPEDTAVYYCAAEFGLWPYEYGYWGQGTQVTVSS | high polyreactivity
7 | QVQLVESGGGLVQAGGSLRLSCAASGSTFGINAMGWYRQAPGKERELVASITRRGGSTYYADSVKGRFTISRDNAKNTVYLQMHSLKPEDTAVYYCAAGNKRRFEGDYWGQGTQVTVSS | high polyreactivity
8 | QVQLVESGGGLVQAGGSLPLSCAASGSIYGANAQGWYRQAPGKERELVAAISSNGDDTYADSVKGRFTISRDNAKNTVYIQMNSLKPEDTAVYYCNKRPWWWGGDDYGGQGTQVTVSS | low polyreactivity
9 | QVHLVESCGGLVQAGGSLRLSCAASGITFWNYAMGRYRQAPGKETELVAAISYSGGSTYYADSVKGRFTISRDNAKNTFYLQMNSLKPEDTGVYYCAATLPTNWVRYDYWGQGTQVTVSS | low polyreactivity
10 | LVQVVESGGGLVQAGCSLRLSCAASGRTFGVYAMGWYRQAPGKEWELVASISRSGGSTYYADSLKGRFTISRDNAKNTVYLQMNSLIPEDTAVYYCAAVYKRGMDYWGQGTQVTVSS | high polyreactivity
11 | QVQLVESGGGLVQAGGSLRLSCAASGSIFKGNAMGWYRQAPGTERELVASITRSVARTYYADSVKGRFTISRDNAKNTVFLLMNSLKAEDTAVYYCAADWYQWGGRYYAPRYYYWGQGTQVTVSS | high polyreactivity
12 | QVQHVESGGGLVQAGGSLRLSCAASGSIFRKNAMGWYRQAPGKERELVAAISSGGGGTYYADSVKGRFTISRDNAKNTVYLQMNSLKPEDTAVFYCNKREGKGGNTKYDYWGQGTQVTVSS | low polyreactivity
13 | QVQLVESGGGLVQAGGSLRLSCAASGSIFANYAMGWYRQAPGKERELVAAISKRGGSTNYADSVKGRFTISRDNAKNTVYLQMISLKPEDTAVYYCNVKPGSRRVLAAAYGYWGQGTKVTVSS | low polyreactivity
14 | QVHLVESGGGLVQAGGSLRLSCAASGSTFKRNAMGWYRQAPGKERELVAAITQRGGRTYYADSVKGRFTISRDNAKNTVYLQMNSLKPEDTAVYYCAVDSQTANDYDYWGQGTEVTVSS | low polyreactivity
15 | QVQLVESGGRLVQAGGSLRLSCAASGFTFSSYAMGWYRQAPGKERELVAAISTRCGSTYYADSVKGRFTISRDNAKNTVYLQMNSLKPEDTAVYYCATGCRGGRRYEYWGQGTQVTVSS | low polyreactivity
16 | QVQLVESGGGLVQAGGSLRLSCSASGRILVLNAMGWYRQAPGTERELVADITSGGSTYYADSVKGRFTISRDNAKNTVYLQMNSLKPEDTAVYYCAADWNTYPDYQQSYFVSYEYNYWGQGTQVTVSS | low polyreactivity
17 | QVQLVESGGGLVQAGGSLRLSCAASGFTFVRYVMGWYRQAPGKERELVAAISRSGGSTHYADSVKGRFTISRDNAKNTVYLQMNSLKPEDTAVYYCNAYGYRHRGNGYWGQGTQVTVSS | high polyreactivity
18 | QVQLVESGGGLVQAGGSLRLSCAASGITFYEYAMGWYRQAPGKEREFVAAIDDGDSSTYYADSVKGRFTISRDNAKNTVYLQMNSLKPEDTAVYFCNADPYYDYSLNWGDYWGQGTQVTVSS | low polyreactivity
19 | QVQLVESGGGLVQAGGSLRLSCAASGSTFETYAMGLYRKAPGKDRELVAAITWAGDTSYADSVKGRFTISRDNAKHTVYLQMNSLKPEDTAVYYCAKDNGRAYFGRSPYDYWGQGTQVTVTS | low polyreactivity
20 | QVQLVESGGGLVQAGGSLRLSCAASGRIFGIYAMGWYRQAPGKERELVAAISYSGGSTYYADSVKGRFTISRDNAKNTVYLQMNSLNPEDTAVYYCNADYYASYYPYYSIRLDYWGQGTQVTVSS | low polyreactivity
21 | QVQLVESGGGLVQAGGSLRLSCAASGSTFPKYAMGWYRQAPGKERELVALITSSTGTTYYADSVKGRFTISRDNAKNTVYLQMNSLKPEDTAVYYCNARVRYREWGLYYWGQGTQVTVSS | high polyreactivity
22 | QVQLVESGVCLDQAGGSLRLSCAASGRTFDYNAMGWYSQAPGKERELVAAIDSDGSTNYADSVKGRFTISRDNAKNTVYLQMNSLKPEDTAVYYCAASTLVVWKPGWQVEYGYWGQGTQVTVSS | low polyreactivity

Row | Sequence | polyreactivity (PSR sort gate)
23 | QVQLVESGGGLVQAGGSLRLSCAASGSTFTVYAMGWYRQAPGKERELVAAISESGTSTYYADSVKGRFTISRDNAKNTVYLQMNSLNPEDTAVYYCAADGPGTSEDDYWGQGTQVTVSS | high polyreactivity
24 | QVQLVESGGGLVQAGGRLRLSCAAAGRTFVLYVMGWYRQAPRKEREFVADINAGGGSTYYADSVKGRFTMSRDNAKNTVYLQMNSLKAEDTAVYYCAASYVRGWKHSLDDYWGQGTQVTVAS | low polyreactivity
25 | QVQLVESGGGLVQAGGSLRLSCAASGSTFVGYAMGWYRQAPGKERELVADIDSIGGSTYYADSVKGRFTISRDNAKNTVYLQMNSMKPEDTAVYYCAARRFDTALVLYDYWGQGSQVTVSS | low polyreactivity
26 | QVQLVESGGGLVQAGRSLRLSCAASGRTFLVYAMGWYRQAPGKERELVAVINSGTSTNYADSVKGRFTISRDNAKNTVYLQMNSQKPEDTAVYYCATAYRRRDRHYYWGQGTQVTVSS | low polyreactivity
27 | QVQLVESGGGLVQAGGSLRLSCAASGRIFGRYAMGWYRQAPGKDRELVAAITYSGGSTYYADSVKGRFTISRDNAKNTVYFQMNSLKPEDTALYYCNAVAYRSRGPHFNYWGQGTQVTVST | high polyreactivity
28 | QVQLVESGGGLVQAGGTLRLSCAASGRIFQAYAMGWYRQAPGKERELVASISYRGGITYYADSVKGRFTISRDNAKNTVYLQMNSLKPEDTAVYYCAARSWYFSWEMYYWGQGTQVTVSS | high polyreactivity
29 | QVQLVESGGGLVQAGGSLRLSCAASGFTFYRNAMGWYRQPPGKERELVAAIDFSGSSTYYADSVKGRFTISRDNAKNTVYLQMNSLKPEDTAVYDCAAELGYAGYWYDYWGQGTQVTVSS | high polyreactivity
30 | QVQLVESGGGLVQAGGSLRLSCAAYGSNLTWNDMGWYRQAPGKERELVAAIDVNDGSTYYADSVKGRFTISRDNAKNTVYLQMNRLKPEDTAVYYCAEPTDYTWLDSTLADDYWGQGTQVTVSS | low polyreactivity
31 | QVQLVESGGGLDQAGGSLRLSCAASGSIILVNAMGWYRQAPGKERELVAAISWRGGRTRYADSVKGRFTISRDNAKNTVYLQMNSLKPEDTAVYYCAAAGRPVGPRYDYWGQGTQVTVSS | high polyreactivity
32 | QVQLVESGGGLVQAGGSLRLSCAASGRSFSLYAMGWYRQAPGKERELVASITGSSTYYADSVKGRFTISRDNAKNTVYLQMNSLKPEDTAVYYCNARTSAGAGVDYWGQGTQVTVSS | low polyreactivity
33 | QVQLVESGGGLVQAGGSLRLSCAASGRTFGIYAMGWYRQAPGKERELVATISWRGGSTYYADSVKGRFTISRDNAKNSVYLQMNSLKPEDTAVYYCAAGYYPYWGQGTQVTVSS | low polyreactivity
34 | QVQLVESGGGLVQAGGSLRLSCAASGSIFTWNAMGWYSQAPGKERELVAAISWIGDSTYYADSVKGRFTISRDNAKNTVYLQMNSLKPEDTAVYYCAAEYAQGSRELESWGQGTQVTVSS | low polyreactivity
35 | QVQLVESGGGLVQAGGSLRLSCAASGFIFHEYAMGWSRQAPGKERELVAAISSGGGSTYYADSVKGRFTISRDNANNTVYLQMNSLKPEDTAVYYCAADATAYSVLTRDYWGQGTQVTVSS | high polyreactivity
36 | QVQLVESGGGLVQAGGSLRLSCAASGRISPNNVMGWYRQAPGKERELVAVISRSGDRTNYADSVKGRFTISRDNAKNTVYLQMNSLKPEDTAVYYCAARVVADKYRYDYWGQGTQVTVSS | high polyreactivity
37 | QVQLVESGGGLVQAGGSLRLSCAASGRTFSYNAMGWYRQAPGKERELVAAITSSGGGTSYADSVKGRFTISRDNAKNTVYLQMNSLKPEDTAVYYCNRVLPHPDGYGVGARGYWGQGTQVSVSS | high polyreactivity
38 | QVQLVESGGGLVKAGGSLRLTCAASGRIFGPYVMGWYRQAPGKERELVAAISTSGTSTYYADSVKGRFTISRDNAKNTVYLQMNSLKPEDTAVYYCAKRSGARHRLMDYWGQGTQVTVSS | low polyreactivity
39 | QVQLVESGGGLVQAGGSIRLTCTPSGIIFGTYAMGWYIQAPGKERELVAAISSSGVSTYYADSVKGRFTISRDNAKNTVYLQMNSLKPEDTAVYYCNARGSNGRSDYDYWGQCTQVTVSS | high polyreactivity
40 | QFQLVESGGGLVQAGGILRLSCDASGSILARYALGWYRQAPGKERVLVAAISSRGGSTYYADSVKGRFSISRDNAKNTVYLQMNSLKPEDTAVYYCASYVYLQVEYDYWGQGTQVTVSS | low polyreactivity
41 | QVQLVESGGGLVQAGGSLRLSCAASGSISIGYTMGWYRQSPGKERDLVATISWSGGNTYYADSVKGRFTIARDNAKNTVYLQINSLKPEDSAVYYFAARWYYYPLLYDYWGQGTQVTVSS | low polyreactivity
42 | QVQLVESGGGLVQAGGSLRLSCAASGYTFGPYAMGWYRQAPGKERELVAAITTRGGSTYYADSVKGRFTISRYNAKNTVYLQMNSLKPEDTAVYYCAAESIRSDDYWGQGTQVTVSS | high polyreactivity
43 | QVQLVESGGGLVQAGGSLRLSCAASGFTFSYYAMGWYRQAPGKERELVAAISRSGGSPYYADSVKGRFTISRDNAKYTVYLQMNSLKPADTAVYYCATDLSYRHGYWGQGTQVTVSS | high polyreactivity
